Measured values taken from article PMC5929103.

Assays:
[1] = biological target: mesotrypsin (Homo sapiens) (UniProt P35030); settings: cited from earlier work
[2] = biological target: yeast-displayed APPI_(M17G/I18F/F34V) (human); assay: flow cytometry on cells
[3] = biological target: human kallikrein-6, active (human) (UniProt Q92876); assay: enzyme inhibition kinetics

Sequence of UniProt P35030 (P35030 2-304): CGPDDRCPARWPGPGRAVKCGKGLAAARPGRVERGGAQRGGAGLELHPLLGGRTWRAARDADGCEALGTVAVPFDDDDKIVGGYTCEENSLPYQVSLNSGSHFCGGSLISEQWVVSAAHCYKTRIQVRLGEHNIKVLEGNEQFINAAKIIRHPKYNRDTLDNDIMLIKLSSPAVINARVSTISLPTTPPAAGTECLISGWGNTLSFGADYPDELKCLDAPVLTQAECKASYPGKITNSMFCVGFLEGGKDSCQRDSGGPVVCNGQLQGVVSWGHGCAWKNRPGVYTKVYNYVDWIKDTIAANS

Row | Kd [2] [µM] | Substance | further results
1 | – | APPI Kunitz domain (from UniProt P05067) | Ki [1]: 0.14 µM
2 | 0.042 | catalytically inactive human anionic trypsin S195A, labelled with DyLight 650 (enzyme) | –
3 | 0.031 | catalytically inactive human cationic trypsin S195A, labelled with DyLight 650 (enzyme) | –
4 | – | APPI_(P13W/M17G/I18F/F34V), soluble form (designed binder) | Ki [3]: 0.0076 µM
5 | 0.026 | catalytically inactive human mesotrypsin S195A, labelled with DyLight 488 (enzyme) | –
